From PMC4072576 come the findings set out here.

The experiment has as its target FLAG-ctxIII coexpressed in E. coli with His-ctxI or His-ctxII (Dictyostelium discoideum). Kind of experiment: AUC.

His-ctxII (recombinant N-terminal His-tagged cortexillin II), sequence (Q550R2 whole entry): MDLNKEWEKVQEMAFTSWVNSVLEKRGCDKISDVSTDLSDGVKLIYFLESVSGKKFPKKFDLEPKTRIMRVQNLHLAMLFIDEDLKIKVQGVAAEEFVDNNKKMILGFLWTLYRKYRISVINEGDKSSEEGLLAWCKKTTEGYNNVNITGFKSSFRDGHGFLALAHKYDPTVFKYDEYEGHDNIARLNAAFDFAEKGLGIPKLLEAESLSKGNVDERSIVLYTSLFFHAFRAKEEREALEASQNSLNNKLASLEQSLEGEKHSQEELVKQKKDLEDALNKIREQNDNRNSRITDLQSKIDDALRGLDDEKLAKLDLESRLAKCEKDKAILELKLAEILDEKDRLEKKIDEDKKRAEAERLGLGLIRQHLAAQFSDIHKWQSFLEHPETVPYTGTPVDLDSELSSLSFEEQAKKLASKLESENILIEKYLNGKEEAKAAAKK
His-ctxI (recombinant N-terminal His-tagged cortexillin I), sequence (Q54HG2 whole entry): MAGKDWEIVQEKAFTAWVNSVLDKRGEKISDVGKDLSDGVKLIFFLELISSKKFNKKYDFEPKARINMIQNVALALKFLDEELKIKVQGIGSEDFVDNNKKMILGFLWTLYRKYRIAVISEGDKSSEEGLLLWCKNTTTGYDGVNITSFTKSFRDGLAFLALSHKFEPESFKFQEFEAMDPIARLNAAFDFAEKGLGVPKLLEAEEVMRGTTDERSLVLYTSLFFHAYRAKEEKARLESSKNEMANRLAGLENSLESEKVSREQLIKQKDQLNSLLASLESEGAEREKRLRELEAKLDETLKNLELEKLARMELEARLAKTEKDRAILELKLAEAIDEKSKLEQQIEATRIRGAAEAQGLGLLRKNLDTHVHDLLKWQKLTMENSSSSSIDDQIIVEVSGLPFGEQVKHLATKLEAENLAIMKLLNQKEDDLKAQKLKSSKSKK

“His-ctxI (recombinant N-terminal His-tagged cortexillin I) (from UniProt Q54HG2 1-444) (natural protein)” yielded a major peak (heterodimer), percent of total protein of 60%.
The result for “His-ctxII (recombinant N-terminal His-tagged cortexillin II) (from UniProt Q550R2 1-441) (natural protein)” reads 70%.
